Data taken from PMC12089286, “LLPS REDIFINE allows the biophysical characterization of multicomponent condensates without tags or labels”.

What was measured:
Nu(247-419) = Nu(247-419) (SARS-CoV-2, UniProt P0DTC9 247-419); experiment: NMR (1D, DOSY); details: protein: recombinant; chain copies: 2; label: none (NMR); 3' Cy5 (microscopy); hairpin
PTBP1 [1] = biological target: T1, PTBP1 (UniProt P26599 1-557); experiment: NMR diffusion (REDIFINE); 1:1 soluble complex; koff 1.41 s-1, kon 3e6 M-1 s-1; 10 mM phosphate pH 6.5, 20 mM NaCl; EMSA: 20 mM HEPES pH 8.0, 100 mM KCl, 1.5 mM MgCl2, 10% glycerol, 0.5 mM DTT, native 10% TBE gel; NMR: PTBP1 in 10 mM sodium phosphate pH 6.5, 20 mM NaCl; Nu in 20 mM sodium phosphate pH 6.0, 50 mM NaCl; 298 K; details: protein: recombinant; tags: pET28a; label: 5'-32P (EMSA); none (NMR); single-stranded
PTBP1 [2] = biological target: T1, PTBP1; experiment: EMSA; 1.5 mM Mg2+, 100 mM KCl, pH 8.0; EMSA: 20 mM HEPES pH 8.0, 100 mM KCl, 1.5 mM MgCl2, 10% glycerol, 0.5 mM DTT, native 10% TBE gel; NMR: PTBP1 in 10 mM sodium phosphate pH 6.5, 20 mM NaCl; Nu in 20 mM sodium phosphate pH 6.0, 50 mM NaCl; 298 K; details: protein: recombinant; tags: pET28a; label: 5'-32P (EMSA); none (NMR); single-stranded

Binder | binding result (Nu(247-419)) | Kd (PTBP1 [1]) | Kd (PTBP1 [2])
GGUUCACCGAGGCCACGCGGAGUACGAUCGAGUGUACAGUGAACC (structured_RNA) [s2m RNA] | binds | – | –
GGGAGAUCUCUAAAAAUCUCUAAAAAUCUCUAAAAA (ssRNA) [3xUCUCU RNA] | – | 500 ± 100 nM | 490 ± 20 nM
